Tests used:
VHL-LgBiT (human) = VHL-LgBiT (human) (UniProt P40337)
[1] = biological target: biotinylated pVHL-Elongin B-Elongin C complex (bio-VBC) (human) (UniProt P40337); test: SPR

Row | HiBiT degradation assay of CDO1 in HEK293T cells with compound 8; absDC50 (VHL-LgBiT (human)) | KD with compound 4 [1] | Substance
1 | 8 nM |  | SmBiT-CDO1 (from UniProt Q16878 1-200) (enzyme)
2 |  | > 40 µM | CDO1(Q99N) (from UniProt Q16878 1-200) (enzyme)
